This test deals with E. coli GyrB (DNA gyrase subunit B) (E. coli) (UniProt P0AES6).

Our source for the supercoiling of relaxed pMP1000 plasmid by gyrase reconstituted from the two purified subunits; time course 5-80 s after ATP, 30 °C, chloroquine gel (supercoils/sec) values is paper PMC6463007.

Chain of E. coli GyrA (DNA gyrase subunit A) (P0AES4 whole entry): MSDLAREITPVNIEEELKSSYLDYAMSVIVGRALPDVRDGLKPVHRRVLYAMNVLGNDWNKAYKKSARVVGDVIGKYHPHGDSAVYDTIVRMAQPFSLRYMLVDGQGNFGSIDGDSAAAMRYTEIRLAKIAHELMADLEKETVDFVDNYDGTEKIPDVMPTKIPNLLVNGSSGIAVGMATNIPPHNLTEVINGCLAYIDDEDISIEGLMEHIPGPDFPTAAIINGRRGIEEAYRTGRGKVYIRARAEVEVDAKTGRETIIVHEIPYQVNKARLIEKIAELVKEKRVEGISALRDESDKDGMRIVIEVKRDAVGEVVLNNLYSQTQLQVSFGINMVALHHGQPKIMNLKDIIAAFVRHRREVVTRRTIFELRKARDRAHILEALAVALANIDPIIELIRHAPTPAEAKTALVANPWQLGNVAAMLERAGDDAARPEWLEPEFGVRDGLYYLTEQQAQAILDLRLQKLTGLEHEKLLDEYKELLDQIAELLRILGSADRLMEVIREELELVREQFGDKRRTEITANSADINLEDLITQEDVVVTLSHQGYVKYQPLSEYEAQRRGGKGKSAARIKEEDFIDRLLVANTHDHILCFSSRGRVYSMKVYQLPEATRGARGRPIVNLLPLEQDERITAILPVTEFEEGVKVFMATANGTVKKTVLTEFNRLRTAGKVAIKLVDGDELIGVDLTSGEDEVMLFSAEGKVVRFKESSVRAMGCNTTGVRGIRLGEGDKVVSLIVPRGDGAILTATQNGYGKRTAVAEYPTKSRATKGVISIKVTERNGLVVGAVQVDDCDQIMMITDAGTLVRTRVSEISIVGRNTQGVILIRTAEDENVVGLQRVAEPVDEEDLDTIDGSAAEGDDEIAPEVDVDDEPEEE

In turn, “E. coli GyrA (DNA gyrase subunit A) (from UniProt P0AES4 1-875) (enzyme)” displayed a supercoiling of relaxed pMP1000 plasmid by gyrase reconstituted from the two purified subunits; time course 5-80 s after ATP, 30 °C, chloroquine gel (supercoils/sec) of 5.
